The values below come from a protein production outcome set (Wang et al. 2014).

This series can be described thus: label from the status in PepcDB records.

On to “MNIMRTAMLLAFMTALFMGVGYLVGGSNGMVIALLMAGGLNFFSYWNSDKIVLRMYGAREVDQHSSPVYYKIVSDLARRASLPQPKVYIIDNAQPNAFATGRNPQNAAVAASTGLLNQLSAEEVAGVMAHELAHIEHRDTLTMTLTATIAGAISMLGNFAFFMGGQRHSSENSHSTGAIGGLLALFVAPFAAMLVQMAISRTREYAADRRGAEICGNPLWLASALSKIAGGGHTVYNEEAEHNPATAHMFIINPLRGEGADSLFSTHPATANRIAALRRQAEEMKGARVENMGWNEKIGLHKKSSDFRDLNSGAQTSVFNEESTVQRIKKRPSWLRYGDSKRPRS”, for which the protein production entry is recorded as “failed”. For “MNINVKDIIADSHLAFLNQENETALRLARQAISLAPDNPDAYRCAGNACMSLDRYDEAIEYYRTAVKYDPDNGNRYYDLGFALASAERFSDALKNLAKAEELGCTPENLVQLYNLLGILCFDIGRYDDALVNLNKAEKLIGIDVDILKRKAVIYGIKNDIKNGLMTANQIKLVTPSEYTGYQIAFKLLVQAKRLDEAEKELERARKYASPTMDFYFDYMTLELEKYKTDNDKEHFKTALGMIEKALKTVKPTVKEVVESYINAAEIYLQLEDADRAIECLNAAQNPIWAYNNGFDVVVRNYEPVTLTEYDIEDMIEADRKKIEEQFGDYGFEEMVESIEPDEEGNRDYLTVIEDEVKSDAKEDSEVYKLDESEKVEYSSDNIDQINRLYVGAYTVKKDFEKVIEYSRKLQASENTYSVYLGKYTEANAMKELGLPDFAAKYEEIIKFFRNAMIKDPTDLTAVTFRVQCYIDIGQYDEAEQLCSLLTKEVRNSFMEKIKKAKSGGEQH”, the protein production result is listed as “failed”. Next, “MNIQDYPDRDMLAIDLANHLAGELEATLFTHDSATLAVAGGTTPGPVFDVLCAADLDWHRVMVLPTDERCVPQDHSRANARLIAERLLVNRAASARYLPLYLPGAEPEDCLAEVEALLTPALPLSVLVLGMGEDMHTASLFAGMPGLAAALDADAPALAVARPETQPENRITLTAPVLNGALSKHLIIYGAAKRKALERAMSMHPEEAPIAAVLDGITVHW”: “failed”; “MNIRMGTKGKRPLRSLTPRDKIHAIQRIHDGESKASVARDIGVPESTLRGWCKNEDKLRFMSRQSATDNLCADALGDKMDGGGGGGGGAGGGGLLGPPEKRQRLDGALPLNFSNKLKFDELAFKRSPLNGLDYSTNKNLADLGYNGLPVDYAAFNGGVKAKVFGADINRPAADPSLNAISPLSSLTHLSGLTGISQSPLAISFNELTTNLNLLAQLNPGLAAMSGLNSF”: “not failed”. “MNIVIAGAGEVGTHLAKMLSQEEQNIVLIDPNPKRLELAAMRSELLPQVGNPLSPSDLLQANVKYADLFISVMPEEADNILACALASRLGAGKTLARINNNEFLKPDMAQYFRDMGVHTMIYPELLAAREIVSTIKNPWARQYVELFDGALVLVGVKVREGAHIVGKYLHELTRTGNKIFHIVAIKRDLETIIPKGGTQVLHGDIVFFATAQNHLDEVRKLAGKDNPPVHKVVIMGGSRIAIRSIEMIPRNIQVAIIEKDKEKSMRISAIAPTNVQVYNGDGRDSDILIEAGLDQTDVFIALTENSETNVLACLGAKRFGVFKTIAKEENIDYISLADRLDIGTLINKKLLAAGSIYRIFLGEDTSTVKCLTLANADVAELVAHRGAPVTKRPVKDLNIPEGITFGGMVRNGVPQMIHGDTVIEPYDHVVVFCLNTPLNILKDFFG”: the protein production entry is reported as “failed”.

Regarding “MNIVSWKDANDEVAGGATTRREREVKEDQEETEVRATSGKTVIKKQPTSISSSSSSWMKSKDPRIVRVSRAFGGKDRHSKVCTLRGLRDRRVRLSVPTAIQLYDLQERLGVDQPSKAVDWLLDAAKEEIDELPPLPISPENFSIFNHHQSFLNLGQRPGQDPTQLGFKINGCVQKSTTTSREENDREKGENDVVYTNNHHVGSYGTYHNLEHHHHHHQHLSLQADYHSHQLHSLVPFPSQILVCPMTTSPTTTTIQSLFPSSSSAGSGTMETLDPRQMVSHFQMPLMGNSSSSSSQNISTLYSLLHGSSSNNGGRDIDNRMSSVQFNRTNSTTTANMSRHLGSERCTSRGSDHHM”, the protein production entry was “failed”. Take “MNKFLRVLFILVILAMTDAIIFQLFFPTYMGSHSGYGISVGWQREIGIWNVTVLVILITVNLKYDWFYLRAVLMALIIGGLGIGTNHFLSYLQYRHSVNAIGALENYLLVLGWIIGWWLENSSRKRV”: the protein production entry was “failed”. In the case of “MNKFVKSLLVAGSVAALAACSSSNNDAAGNGAAQTFGGYSVADLQQRYNTVYFGFDKYDITGEYVQILDAHAAYLNATPAAKVLVEGNTDERGTPEYNIALGQRRADAVKGYLAGKGVDAGKLGTVSYGEEKPAVLGHDEAAYSKNRRAVLAY”, the protein production result is given as “not failed”. The value for “MNKKIFYITILLHLPNLLFSYSTKYDIEVKMSAFVMSLAIIVISSISIGNLVAKIGIPKVIGQITAGIILSPNAFGKIQIPLLFPLGITQIGENYLINEKIFAISTIASIILLFTAGLETDLKLFIKFLPRGGIIGITEVVGTFTSFVLMASIIFNVPLISPTSLFIGIIGTPTSAGIAASILSAKKKMSTSEGVTIISTSIIDDVLSMLMLTSVITISRSISDLDIASSIKAIVQNIVIWLCLTFSLIYISETLSRLLKKLNSVTLATVITLSLALTIASIFQNLGMSFVVGAYVFGLAMSKTDIVYVIQDKLTIFERFFIPIFFTSIGLMSDINEILSKEVLILGLAISAIAIITKSIFCFIPALFLGFNKLGALKIATGMVPRGEVSLIMANVALSSGFISQKIFGIIIIMVFLPTIIATPIINFLFKINKSGLKKELPIDQNTHICVSFEYDNLAKILIWDFKNELRKEGFFTQQIKNDSSQYINARKNNISFSIKREGSKITFECPNNHLIIIQDLFRETILNLEKITKEVETVSLRAKKLDYSINYDKILSNINLNKRIKKENIILELKSSNKADVIRELLSVINIEIDKERIFQDLMEREKLITTALKEGFAIPHLKTNLISKIHIAIGISHEGIDFNALDKNLSHVFILILCPAKDYVSYPRILASVVGKVDLYKKEILNAKTDKEIYNIIVS” was “failed”; that for “MNKKILATAVLGTGALSTLFAHQAEASTTHTVRSGESLWSISHHYGITVSKLKSLNGLSSNLIFPNQVLKVSGSSNYSSRSNYGNSSSTYTVRAGDSLSSIASRYGTTYRHIMNLNGLNSFLIFPGQQLKVSGSVSSNSHSSYNSNSGGSSSTYTVRYGDSLSSIASRYGTTYQHIMRLNGLNNFFIYPGQKLRVSGSASSNTYSTRSAQSTYYSSPVFNHRNLYDWGQCTWHVFNRRAAIGKGISTYWWNANNWDNAAARDGYRIDGNPTVGSIAQSDAGYYGHVAFVERVNSNGSILVSEMNFSASPGILTYRTIPAYQVRNYKFIH” was “failed”. As to “MNKKKFENLPKWNNFALFNFLAKDKENSLEVMEASRGFAVPGIVATNYETAEEAANVVKELQTTAPVISVGLGGGGDWQNWRDVLHIARLAPNSHINQPIETAGLTNDLLPETYTNALVRPTGKVGIVKLSSGDEITAEEAVDYCLSANIPSIKFMSIEGTKYLDELVYLTKVAAEKGIYGIEPAGGIGAENILEITTAIKTTGIPFFMPHIFGKTIDKATGRTKPEEIEKIFAALEGK”, the protein production result is given as “failed”.
